Like-named read-outs stand apart in the source and are kept apart here.
T1: HLTF HIRAN domain (UniProt Q14527 51-171)
T1 sequence: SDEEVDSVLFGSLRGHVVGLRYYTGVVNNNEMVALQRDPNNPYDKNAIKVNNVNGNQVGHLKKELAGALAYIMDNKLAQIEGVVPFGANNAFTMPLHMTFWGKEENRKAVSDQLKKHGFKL


Key:
HLTF HIRAN domain [1] = target: T1, HLTF HIRAN domain; experiment: competition
HLTF HIRAN domain [2] = target: T1, HLTF HIRAN domain; experiment: fluorescence polarization
HLTF HIRAN domain [3] = target: T1, HLTF HIRAN domain; experiment: fluorescence polarization; remark: listed apart in the source

Binder	IC50 (HLTF HIRAN domain [1]) [nM]	further results
CCG (ssDNA)	3600 ± 200	
CTTG (ssDNA)	1600 ± 200	
TCC (ssDNA) [5'-FAM-TCC]		Kd (HLTF HIRAN domain [2]): 210 ± 70 nM
TTT (ssDNA)	4300 ± 900	
TATAT (ssDNA) [5'-FAM-TATAT]		Kd (HLTF HIRAN domain [2]): 250 ± 100 nM
ATG (ssDNA)	2900 ± 400	
CTG (ssDNA) [5'-FAM-CTG]		Kd (HLTF HIRAN domain [2]): 60 ± 10 nM
TCG (ssDNA)	2900 ± 300	
GTTG (ssDNA)	1700 ± 100	
TTA (ssDNA)	4300 ± 400	
ATATA (ssDNA) [5'-FAM-ATATA]		Kd (HLTF HIRAN domain [2]): 170 ± 60 nM
GTTG (ssDNA) [5'-FAM-GTTG]		Kd (HLTF HIRAN domain [2]): 220 ± 90 nM
ATG (ssDNA) [5'-FAM-ATG]		Kd (HLTF HIRAN domain [2]): 90 ± 10 nM
GGG (ssDNA)	20200 ± 5100	
TTG (ssDNA) [5'-FAM-TTG]		Kd (HLTF HIRAN domain [2]): 30 ± 10 nM
GTG (ssDNA) [5'-FAM-GTG]		Kd (HLTF HIRAN domain [2]): 180 ± 10 nM
CTT (ssDNA)	10000 ± 1500	
TTTG (ssDNA)	2000 ± 200	

Binder	IC50 (HLTF HIRAN domain [1]) [nM]	further results
CAG (ssDNA)	31700 ± 3900	
AAAAA (ssDNA) [5'-FAM-A5]		Kd (HLTF HIRAN domain [2]): 160 ± 40 nM
TTG (ssDNA)	2800 ± 500	
TTTTT (ssDNA) [T5]	2400 ± 600	
TTTTT (ssDNA) [5'-FAM-T5]		Kd (HLTF HIRAN domain [3]): 140 ± 30 nM
GTG (ssDNA)	2200 ± 70	
TAT (ssDNA)	34900 ± 9200	
ATTG (ssDNA)	1800 ± 200	
TTTG (ssDNA) [5'-FAM-TTTG]		Kd (HLTF HIRAN domain [2]): 100 ± 20 nM
GCC (ssDNA)	31800 ± 8500	
CCT (ssDNA)	6900 ± 70	
GGT (ssDNA)	5400 ± 200	
TGT (ssDNA)	15500 ± 900	
TCC (ssDNA)	17100 ± 4800	
TTC (ssDNA)	13500 ± 600	
TCT (ssDNA)	6800 ± 700	
CTG (ssDNA)	2500 ± 200	

Reference: PMC9684356
